Experimental data taken from patent publication US20110117625, “Engineered Nucleases and Their Uses for Nucleic Acid Assembly” (published 2011).

T1: I-SceI D44A/D145N (UniProt P03882 P03882:1-235, D44A,D145N)
T1 sequence: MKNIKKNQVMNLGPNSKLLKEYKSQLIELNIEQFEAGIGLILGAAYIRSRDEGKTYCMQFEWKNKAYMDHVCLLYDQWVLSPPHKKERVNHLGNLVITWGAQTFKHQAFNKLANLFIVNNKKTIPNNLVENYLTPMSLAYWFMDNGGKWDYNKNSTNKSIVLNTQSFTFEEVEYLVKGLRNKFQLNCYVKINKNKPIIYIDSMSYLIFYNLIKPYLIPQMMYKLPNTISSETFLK

T2: I-CreI D20N/Q47A (UniProt P05725 P05725:1-163, D20N,Q47A)
T2 sequence: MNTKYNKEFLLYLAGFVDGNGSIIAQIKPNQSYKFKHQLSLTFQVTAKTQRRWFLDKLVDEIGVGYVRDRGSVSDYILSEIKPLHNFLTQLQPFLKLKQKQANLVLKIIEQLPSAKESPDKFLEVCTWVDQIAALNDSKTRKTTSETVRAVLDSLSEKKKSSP

T3: I-SceI (wild type) (UniProt P03882 P03882:1-235)
T3 sequence: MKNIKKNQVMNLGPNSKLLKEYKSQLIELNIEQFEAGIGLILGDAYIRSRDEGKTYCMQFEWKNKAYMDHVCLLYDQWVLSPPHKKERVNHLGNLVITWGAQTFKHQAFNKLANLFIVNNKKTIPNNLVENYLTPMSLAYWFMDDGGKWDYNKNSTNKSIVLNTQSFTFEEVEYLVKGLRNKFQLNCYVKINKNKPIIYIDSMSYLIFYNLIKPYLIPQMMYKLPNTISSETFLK

T4: Sce7 (I-SceI D44N/D145A, non-cleaving) (UniProt P03882 P03882:1-235, D44N,D145A)
T4 sequence: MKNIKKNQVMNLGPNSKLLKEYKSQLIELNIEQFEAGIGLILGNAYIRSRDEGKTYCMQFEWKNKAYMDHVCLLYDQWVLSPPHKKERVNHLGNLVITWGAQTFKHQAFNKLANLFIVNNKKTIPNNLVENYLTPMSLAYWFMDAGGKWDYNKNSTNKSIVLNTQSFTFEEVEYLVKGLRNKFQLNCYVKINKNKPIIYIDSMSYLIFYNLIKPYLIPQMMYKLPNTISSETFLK


Tests used:
I-SceI D44A/D145N = target: T1, I-SceI D44A/D145N; experiment: EMSA; 5 nM DNA, 20 mM Tris pH 8.0, 37 C; settings: tags: 6xHis N-terminal with TEV site; EcoRI/BamHI overhangs
Description: (§1) Various concentrations of I-SceI or I-CreI (generally between 2.5 and 50 nM) were mixed with 5 nM DNA in 20 mM tris.HCl, 100 ug/mL bovine serum albumin, pH 8.0 (for I-SceI variants) or pH 9.0 (for I-CreI variants) in a total volume of 10 ìL. After incubation for 20 minutes at 37° C., 1 ìL of 10× DNA retardation gel loading buffer (Invitrogen) was added and the samples were loaded onto a 1 mm thick DNA retardation gel (Invitrogen). Electrophoresis was performed for 45 minutes at 175 Volts in 0.5× TBE buffer (Invitrogen). Gels were stained for 45 minutes with SYBR Gold stain (Invitrogen) and visualized by UV illumination. Densitometry was performed on a digital image of the gel to determine the relative intensities of the bands corresponding to bound and unbound DNA. Intensities of bound and unbound DNA were used to determine the concentrations of bound and free enzyme at each initial concentration. […] Binding affinities (dissociation constants, Kd) were determined by plotting the concentration of bound enzyme on the y-axis and the concentration of free enzyme on the x-axis for each data point and fitting the data to a rectangular hyperbola using standard nonlinear least-squares fitting procedures, using the equation y=([DNA]*x)/(Kd+x).

I-CreI D20N/Q47A = target: T2, I-CreI D20N/Q47A; experiment: EMSA; 5 nM DNA, 20 mM Tris pH 9.0, 37 C; printed D2ON; settings: tags: 6xHis N-terminal with TEV site; chain copies: 2; EcoRI/BamHI overhangs
Description: as §1

I-SceI (wild type) = target: T3, I-SceI (wild type); experiment: EMSA; 20 mM Tris pH 9.0, 25 mM NaCl, 10 mM CaCl2, 37 C?; settings: tags: 6xHis N-terminal with TEV site (as for variants)
[1] = target: T4, Sce7 (I-SceI D44N/D145A, non-cleaving); experiment: EMSA; 20 mM Tris pH 9.0, 25 mM NaCl, 10 mM CaCl2, 37 C; settings: tags: 6xHis N-terminal with TEV site
Description: The binding affinities for the I-SceI recognition sites were determined using a gel-shift assay and are depicted in Table 3.
To measure the dissociation constants, the binding protein of interest, at a range of concentrations between 2 and 400 nM, was incubated with 10 nM DNA substrate in 20 ìL of 20 mM Tris.HCl, pH 9.0, 25 mM NaCl, 10 mM CaCl2, 1 mM DTT, 2% glycerol, and 0.1 mg/mL BSA, for 20 minutes at 37° C. (Sce7 and CdnDI) or 42° C. (CdnDII). Two ìL of 10′ loading buffer were added to each sample, and 10 ìL of each mixture were loaded onto 6% polyacrylamide DNA retardation gels (Invitrogen), and run for 30 minutes at 175 V. The gels were stained with SYBR Gold (Invitrogen) and visualized with ultraviolet light. DNA-containing bands were quantified by densitometry as described above. Concentrations of bound and free protein were calculated from the input amount of DNA and from ratios of band intensities, and the data were fit using Origin software (Originlab, Northampton, Mass.) to the following equation: […]

| Binder | binding result (I-SceI D44A/D145N) | binding result (I-CreI D20N/Q47A) | Kd (I-SceI (wild type)) [nM] | Kd [1] [nM] |
| --- | --- | --- | --- | --- |
| pSCI insert with I-SceI and I-CreI sites (142 bp) (dsDNA) DNA 1: AATTCTGGTTCCGAAGCCTGTCCTGCACGCTAGGGATAACAGGGTAATAATATATGAATCCAAACTAGAGCGGGGCTCTTGACGTTTGGCTCAAAACGTCGTGAGACAGTTTGGTCAGTTGTAAATATCTAATATTCCAATG DNA 2: GATCCATTGGAATATTAGATATTTACAACTGACCAAACTGTCTCACGACGTTTTGAGCCAAACGTCAAGAGCCCCGCTCTAGTTTGGATTCATATATTATTACCCTGTTATCCCTAGCGTGCAGGACAGGCTTCGGAACCAG | binds | binds | – | – |
| 80-bp I-SceI site duplex (dsDNA) DNA 1: GAATTCTGGTTCCGAAGCCTGTCCTGCACGCTAGGGATAACAGGGTAATAATATATGAATCCAAACTAGAGCGGGGCTCT DNA 2: AGAGCCCCGCTCTAGTTTGGATTCATATATTATTACCCTGTTATCCCTAGCGTGCAGGACAGGCTTCGGAACCAGAATTC | – | – | 62 | 13 |
